Experimental data: patent publication US20230086603A1 (BOLT BIOTHERAPEUTICS, published 2023)
Numbering of substitutions follows the chain as printed.

B1: 9 (antibody, V domains shown)
VH: QVQLVQSGAEVKKPGASVKVSCKASGHSFTHYYMHWVRQAPGQGLEWMGWMNPDSGSTGYAQKFQGRVTMTRDTSTSTVYMELSSLRSEDTAVYYCARALFPYPFYYYYMDVWGQGTLVTVSS
VL: DIQMTQSPSSLSASVGDRVTITCRASQGIRNDLGWYQQKPGKAPKLLIYSASNLQSGVPSRFSGSGSGTDFTLTISSLQPEDFATYYCQQANSFPFTFGGGTKVEIK
B2: 27 (antibody, V domains shown)
VH: QVQLVQSGAEVKKPGASVKVSCKASGYTFTNYYIHWVRQAPGQGLEWMGWMSPNGGNTGYAQKFQGRVTMTRDTSTSTVYMELSSLRSEDTAVYYCARESWELTGFDYWGQGTLVTVSS
VL: B1 VL with R24Q, R30S, D32Y, G34A, S50D, N53S, A91S, N92Y, F94T, F96L
B3: 13 (antibody, V domains shown)
VH: QVQLVQSGAEVKKPGASVKVSCKASGYPFTSYYMHWVRQAPGQGLEWMGWMNPNSDIAGYAQKFQGRVTMTRDTSTSTVYMELSSLRSEDTAVYYCAREGRHGEYLYWGQGTLVTVSS
VL: B1 VL with G28I, R30S, N31S, D32Y, G34N, S50A, N53S, A91G, N92F, F94T
B4: 1 (antibody, V domains shown)
VH: QVQLVQSGAEVKKPGASVKVSCKASGGTFSSYAISWVRQAPGQGLEWMGVINPSAGSTDYAQKFQGRVTMTRDTSTSTVYMELSSLRSEDTAVYYCARDLYPYVVVVAAGSYGMDVWGQGTLVTVSS
VL: B1 VL with R30D, N31S, D32Y, G34A, S50A, N53S, A91S, N92Y, F94T, F96I
B5: 16 (antibody, V domains shown)
VH: QVQLVQSGAEVKKPGSSVKVSCKASGGTFSSYAISWVRQAPGQGLEWMGGIIPIFGTANYAQKFQGRVTITADESTSTAYMELSSLRSEDTAVYYCARGGYSYGSFQHWGQGTLVTVSS
VL: B1 VL with R30S, D32N, G34N, S50A, S52T, N53T, A91S, N92Y, F94T, F96Y
B6: 18 (antibody, V domains shown)
VH: QVQLVQSGAEVKKPGASVKVSCKASGYTFTSYYMHWVRQAPGQGLEWVGWMTPSTGNAGYAQKFQGRVTMTRDTSTSTVYMELSSLRSEDTAVYYCAREEWLGHFQHWGQGTLVTVSS
VL: B1 VL with R30S, D32G, G34S, S50A, N53T, A91S, N92H, F94T, F96L
B7: 36 (antibody, V domains shown)
VH: B5 VH with S31T, Y32F, A33G, Q107D, H108Y
VL: DIQMTQSPSSLSASVGDRVTITCRASQGISNNLNWYQQKPGKAPKLLIYATSTLQSGVPSRFSGSGSGTDFTLTISSLQPEDFATYYCQQSYSTPYTFGQGTKVEIK
B8: 17 (antibody, V domains shown)
VH: QVQLVQSGAEVKKPGASVKVSCKASGDTFTRHYVHWVRQAPGQGLEWMGWMSPSSGITGYAQKFQGRVTMTRDTSTSTVYMELSSLRSEDTAVYYCARVRWSSDAFDIWGQGTLVTVSS
VL: not shown
B9: 14 (antibody, V domains shown)
VH: QVQLVQSGAEVKKPGASVKVSCKASGYRFTTYYVHWVRQAPGQGLEWMGWMNPNTVYTGSAQKFQGRVTMTRDTSTSTVYMELSSLRSEDTAVYYCAREGWGSSGYFDYWGQGTLVTVSS
VL: B7 VL with R24Q, G28D, N32Y, T51A, T53S, Y92F, S93T, T94N, Y96V, Q100G
B10: 22 (antibody, V domains shown)
VH: QVQLVQSGAEVKKPGASVKVSCKASGYTFTGYTLHWVRQAPGQGLEWMGWIDPNSGVTSSAQKFQGRVTMTRDTSTSTVYMELSSLRSEDTAVYYCARESEVMMAYFQHWGQGTLVTVSS
VL: B7 VL with R24Q, G28D, N31S, N32Y, T51A, T53S, S56T, V104L
B11: 23 (antibody, V domains shown)
VH: QVQLVQSGAEVKKPGASVKVSCKASGYTFTGYYMHWVRQAPGQGLEWMGWISPNSGVTDFTQKFQGRVTMTRDTSTSTVYMELSSLRSEDTAVYYCARESWSGEFDYWGQGTLVTVSS
VL: B7 VL with G28S, S30T, N31T, N32Y, T51A, T53S, S56G
B12: 11 (antibody, V domains shown)
VH: QVQLVQSGAEVKKPGASVKVSCKASGYTFTNYYIHWVRQAPGQGLEWLGWMNPNGDVAGYADSFQGRVTMTRDTSTSTVYMELSSLRSEDTAVYYCAIDSSGWMRNDAFDIWGQGTLVTVSS
VL: DIQMTQSPSSLSASVGDRVTITCRASQGISQYLAWYQQKPGKAPKLLIYGASNLHSGVPSRFSGSGSGTDFTLTISSLQPEDFATYYCQQTFITPLTFGGGTKVEIK
B13: 2 (antibody, V domains shown)
VH: QVQLVQSGAEVKKPGASVKVSCKASGYTFTSYYMHWVRQAPGQGLEWMGWMNPNSDIAGYAQKFQGRVTMTRDTSTSTVYMELSSLRSEDTAVYYCAIPSIVGAYDAFDIWGQGTLVTVSS
VL: B7 VL with G28S, N31S, N32W, N34A, T51A, T53S, S93T, Y96I, Q100G
B14: 12 (antibody, V domains shown)
VH: QVQLVQSGAEVKKPGASVKVSCKASGGTFSNYMYHWVRQAPGQGLEWMGWISTYHGSTNYAQKFQGRVTMTRDTSTSTVYMELSSLRSEDTAVYYCARDARGYSGYDLWGQGTLVTVSS
VL: DIQMTQSPSSLSASVGDRVTITCRASQIIGNYLAWYQQKPGKAPKLLIYHASILETGVPSRFSGSGSGTDFTLTISSLQPEDFATYYCQQSYSTPTFGGGTKVEIK
B15: 19 (antibody, V domains shown)
VH: QVQLVQSGAEVKKPGASVKVSCKASGYTFTSHYMHWVRQAPGQGLEWMGWMNPNSGNTGYAQKFQGRVTMTRDTSTSTVYMELSSLRSEDTAVYYCARERFLGGMDVWGQGTTVTVSS
VL: B7 VL with G28S, S30T, N31G, N32W, N34A, T51A, T53S
B16: 20 (antibody, V domains shown)
VH: B6 VH with S31D, V48M, T52H, S54N, T55S, N57H, A58T, Y80N
VL: DIQMTQSPSSLSASVGDRVTITCRASQSISSWLAWYQQKPGKAPKLLIYDATHLETGVPSRFSGSGSGTDFTLTISSLQPEDFATYYCQQSYSTPITFGQGTRLEIK
B17: 31 (antibody, V domains shown)
VH: B6 VH with V48M, M51L, N57H, E100G, W101Y, L102G, H104N, F105Y, Q106G, H107N
VL: B16 VL with S31P, T52S, H53N, S91T
B18: 25 (antibody, V domains shown)
VH: QVQLVQSGAEVKKPGASVKVSCKASGYTFTGYYMHWVRQAPGQGLEWMGWMNPNSDIAGYAQKFQGRVTMTRDTSTSTVYMELSSLRSEDTAVYYCARDAWELLAFDIWGQGTLVTVSS
VL: B16 VL with I29V, S31T, D50A, T52S, H53N, T56S, I96Y, R103K
B19: 26 (antibody, V domains shown)
VH: QVQLAQSGAEVKKPGASVKVSCKASGYTFTNHYMHWVRQAPGQGLEWMGWMNPNSGNTGYAQKFQGRVTMTRDTSTSTVYMELSSLRSEDTAVYYCARDRWDGDYYSAWGQGTLVTVSS
VL: B16 VL with S31N, A51V, T52S, T56S, I96F, Q100P, R103K, L104V, E105D
B20: 28 (antibody, V domains shown)
VH: B15 VH with H32Y, L102A, V107A
VL: EIVMTQSPATLSVSPGERATLSCRASQSLSSSSLAWYQQKPGQAPRLLIYGASTRATGIPARFSGSGSGTEFTLTISSLQSEDFAVYYCQQYGSSPFTFGPGTKVDIK
B21: 24 (antibody, V domains shown)
VH: B15 VH with Y27D, S31N, N57H, K63R, R100A, F101V, L102A, G104P
VL: not shown
B22: 29 (antibody, V domains shown)
VH: QVQLVQSGAEVKKPGASVKVSCKASGYTFSNSYMHWVRQAPGQGLEWMGWMDPSSGYTGSAHKFQGRVTMTRDTSTSTVYMELSSLRSEDTAVYYCAEDSGGAFDIWGQGTMVTVSS
VL: B7 VL with Q27E, G28H, S30A, N32W, N34A, A50G, T51V, T53S, Q55E, V104L
B23: 30 (antibody, V domains shown)
VH: B15 VH with T28P, T30S, S31T, H32Y, N54H, G56A, N57D, Q62E, R100V, L102E
VL: DIQMTQSPSSLSASVGDRVTITCRASQSVGSWVAWYQQKPGKAPKLLIYPASTLQSGVPSRFSGSGSGTDFTLTISSLQPEDFATYYCQQSYSTPLTFGGGTKVEIK

molecular target: T1, human PD-L1 (hPD-L1) (human, UniProt Q9NZQ7 19-290); experiment: flow cytometry on JIMT-1 cells expressing endogenous human PD-L1; anti-human IgG Fc secondary; geometric MFI
T1 construct: Endogenous hPD-L1 on JIMT1 (JIMT-1) cells; also called programmed death-ligand 1; CD274
Protocol: Binding of the binding agents of an embodiment of the invention to human PD-L1 (hPD-L1) on cell surfaces was assessed by incubating the binding agents with JIMT1 cells that express endogenous hPD-L1. Briefly, the binding agents were diluted serially in FACS buffer (PBS+1% FBS+5 mM EDTA, pH 7.4) at 4° C. Diluted binding agents were applied to JIMT1 cells (˜1×10⁵-2×10⁵ per well) and incubated at 4° C. […] After unbound secondary antibody was washed out, cells were resuspended in FACS buffer plus 2% formaldehyde and analyzed by flow cytometry. The intensity of fluorescence, expressed as geometric mean fluorescence intensity, was used to determine anti-PDL1 binding agent binding to hPD-L1 on cell surface.

T1 sequence (Q9NZQ7 19-290 limits assumed): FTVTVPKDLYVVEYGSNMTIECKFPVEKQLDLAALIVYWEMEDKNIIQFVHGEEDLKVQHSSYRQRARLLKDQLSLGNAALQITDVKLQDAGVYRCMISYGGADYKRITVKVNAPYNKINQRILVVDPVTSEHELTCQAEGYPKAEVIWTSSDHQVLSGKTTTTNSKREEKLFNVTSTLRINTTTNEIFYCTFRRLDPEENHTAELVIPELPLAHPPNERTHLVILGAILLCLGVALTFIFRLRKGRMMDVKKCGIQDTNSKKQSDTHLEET

Binding result, binds:
B1
B2
B3
B4
B5
B6
B7
B8
B9
B10
B11
B12
B13
B14
B15
B16
B17
B18
B19
B20
B21
B22
B23
